The values below come from patent US20030027338A1 (BROOKHAVEN SCIENCE ASSOCIATES, published 2003).

T1: Ad12 knob mutant P417E/P418A (his-tagged) (adenovirus serotype 12, UniProt P36711 401-587)
T1 construct: range 401-587; AB loop; also called double substitution P417E/P418A; not shown: pET15b vector-encoded N-terminal hexahistidine tag
T1 sequence: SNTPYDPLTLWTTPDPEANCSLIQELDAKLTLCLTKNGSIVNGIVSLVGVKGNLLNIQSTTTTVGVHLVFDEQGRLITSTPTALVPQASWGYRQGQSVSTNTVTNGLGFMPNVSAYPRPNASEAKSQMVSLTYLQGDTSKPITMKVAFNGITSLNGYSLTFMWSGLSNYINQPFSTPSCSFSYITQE

T2: his-tagged Ad12 knob (wild type) (adenovirus serotype 12, UniProt P36711 401-587)
T2 construct: range 401-587; Cloned between the NdeI and BamHI sites of pET15b; tag left on; also called Purified, his-tagged Ad12 knob; wild-type his-tagged knob protein; not shown: pET15b vector-encoded N-terminal hexahistidine tag
T2 sequence: T1 sequence with E17P, A18P

B1: his-tagged D1 (refolded amino-terminal IgV domain of human CAR) (receptor)
chain: MGITTPEEMIEKAKGETAYLPCKFTLSPEDQGPLDIEWLISPADNQKVDQVIILYSGDKIYDDYYPDLKGRVHFTSNDLKSGDASINVTNLQLSDIGTYQCKVKKAPGVANKKIHLVVLVKPSGA
notes: range 20-144; also called CAR D1; CARD1; not shown: pET15b vector-encoded amino-terminal hexahistidine tag
B2: biotinylated CARD1 protein (receptor)
chain: B1 chain with M1L, G2S
modifications: biotinylated with sulfo-NHS-LC biotin (sites not given)
notes: domain: D1
B3: sD1 (soluble D1 of human CAR with 22 amino acid carboxy-terminal extension) (receptor)
chain: MGITTPEEMIEKAKGETAYLPCKFTLSPEDQGPLDIEWLISPADNQKVDQVIILYSGDKIYDDYYPDLKGRVHFTSNDLKSGDASINVTNLQLSDIGTYQCKVKKAPGVANKKIHLVVLVKPSGALEDPAANKARKEAELAAATAEQ
notes: range 20-144; No hexahistidine tag; Used as a partially purified preparation; also called pET15b-sD1 product
B4: his-tagged D1/D2 (refolded entire extracellular region of human CAR, IgV+IgC2 domains) (receptor)
chain: MGITTPEEMIEKAKGETAYLPCKFTLSPEDQGPLDIEWLISPADNQKVDQVIILYSGDKIYDDYYPDLKGRVHFTSNDLKSGDASINVTNLQLSDIGTYQCKVKKAPGVANKKIHLVVLVKPSGARCYVDGSEEIGSDFKIKCEPKEGSLPLQYEWQKLSDSQKMPTSWLAEMTSSVISVKNASSEYSGTYSCTVRNRVGSDQCLLRLNVVPPSNKAG
notes: range 20-237; also called CAR D1/D2; CARD1/D2; not shown: pET15b vector-encoded amino-terminal hexahistidine tag
B5: Ad12 knob (recombinant adenovirus type 12 fiber knob domain, his-tag removed by thrombin) (other)
chain: T1 sequence with E17P, A18P
notes: range 401-587; Expressed from pET15b in E. coli; The hexahistidine tag was cleaved with thrombin; Trimer by SDS-PAGE, STEM (60.6 kDa) and gel filtration; also called Ad12 fiber knob

Where a chain is given by its changes, count along the chain named.

Assay [1] deals with T3, purified Ad2 hexon protein (adenovirus type 2, UniProt P03277 2-968).
T3 construct: Included as a specificity control in the pull-down
As to the kind of experiment: Ni-NTA pull-down with his-tagged D1, SDS-PAGE of bead eluate.

The target in assay [2] is T1, Ad12 knob mutant P417E/P418A …. As to the kind of experiment: dot blot: his-tagged knob on nitrocellulose (5 µg per dot) probed with biotinylated CARD1, chemiluminescence; text: abrogated CARD1 binding.
The target of assay [3] is T2, his-tagged Ad12 knob (wild type). Kind of assay: Ni-NTA column capture of his-tagged knob mixed with sD1, EDTA elution, SDS-PAGE.
The target of assay [4] is T3, purified Ad2 hexon protein. As to the kind of experiment: Ni-NTA pull-down with his-tagged D1/D2, SDS-PAGE of bead eluate.
The target of assay [5] is B4. The assay is described as above.

T3 sequence (P03277 2-968 limits assumed): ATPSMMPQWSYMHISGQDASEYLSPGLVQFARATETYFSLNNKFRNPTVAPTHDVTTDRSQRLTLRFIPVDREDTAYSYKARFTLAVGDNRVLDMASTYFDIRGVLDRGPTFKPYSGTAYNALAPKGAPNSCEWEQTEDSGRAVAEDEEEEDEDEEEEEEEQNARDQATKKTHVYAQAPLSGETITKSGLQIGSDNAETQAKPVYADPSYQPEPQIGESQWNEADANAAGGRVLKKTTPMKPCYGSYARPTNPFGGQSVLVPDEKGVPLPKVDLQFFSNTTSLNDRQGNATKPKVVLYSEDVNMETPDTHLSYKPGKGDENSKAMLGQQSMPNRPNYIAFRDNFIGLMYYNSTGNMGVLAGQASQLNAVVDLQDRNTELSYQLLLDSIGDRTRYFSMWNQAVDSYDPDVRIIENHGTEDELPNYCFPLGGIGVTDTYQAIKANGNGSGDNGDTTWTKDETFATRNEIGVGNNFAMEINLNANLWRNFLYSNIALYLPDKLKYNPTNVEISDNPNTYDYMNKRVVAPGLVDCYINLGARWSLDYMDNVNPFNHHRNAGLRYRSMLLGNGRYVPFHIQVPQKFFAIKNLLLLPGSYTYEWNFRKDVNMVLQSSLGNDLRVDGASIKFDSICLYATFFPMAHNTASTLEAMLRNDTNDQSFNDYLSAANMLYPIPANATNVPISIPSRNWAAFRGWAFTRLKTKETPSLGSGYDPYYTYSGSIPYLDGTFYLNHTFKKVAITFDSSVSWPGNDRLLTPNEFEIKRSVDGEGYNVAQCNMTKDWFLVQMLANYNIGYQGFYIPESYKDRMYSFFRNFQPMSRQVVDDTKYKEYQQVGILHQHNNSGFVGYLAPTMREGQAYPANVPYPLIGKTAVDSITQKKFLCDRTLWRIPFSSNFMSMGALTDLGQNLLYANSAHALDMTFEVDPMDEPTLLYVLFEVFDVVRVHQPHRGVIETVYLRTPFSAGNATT

Consider B1, for which the binding result in assay [1] was “no binding”.

With B2, the binding result in assay [2] was “no binding (tested: 5 µg/ml biotinylated CARD1)”.

In the case of B3, the binding result in assay [3] is recorded as “binds”. Take B4: in assay [4], the binding result is “no binding”. Consider B5, for which, in assay [5], the binding result is listed as “binds”.
